T1: human ALPI (intestinal alkaline phosphatase) expressed on the surface of CHO cells (human, UniProt P09923 20-503)
T1 sequence (looked up): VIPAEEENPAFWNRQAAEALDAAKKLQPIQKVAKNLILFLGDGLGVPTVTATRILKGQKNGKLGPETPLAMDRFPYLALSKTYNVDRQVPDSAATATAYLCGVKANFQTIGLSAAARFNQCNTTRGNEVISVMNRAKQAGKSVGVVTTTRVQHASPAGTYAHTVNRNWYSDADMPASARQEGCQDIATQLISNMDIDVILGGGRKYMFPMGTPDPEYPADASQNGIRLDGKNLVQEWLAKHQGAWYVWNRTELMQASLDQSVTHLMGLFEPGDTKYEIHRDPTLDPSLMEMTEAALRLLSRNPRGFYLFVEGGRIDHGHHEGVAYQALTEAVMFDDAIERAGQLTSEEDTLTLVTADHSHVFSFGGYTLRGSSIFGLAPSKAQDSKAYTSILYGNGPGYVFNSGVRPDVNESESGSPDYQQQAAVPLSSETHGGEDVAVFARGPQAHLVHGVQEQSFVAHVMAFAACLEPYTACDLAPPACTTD

T2: human ALPL (tissue non-specific alkaline phosphatase) expressed on the surface of CHO cells (human, UniProt P05186 18-501)
T2 sequence (looked up): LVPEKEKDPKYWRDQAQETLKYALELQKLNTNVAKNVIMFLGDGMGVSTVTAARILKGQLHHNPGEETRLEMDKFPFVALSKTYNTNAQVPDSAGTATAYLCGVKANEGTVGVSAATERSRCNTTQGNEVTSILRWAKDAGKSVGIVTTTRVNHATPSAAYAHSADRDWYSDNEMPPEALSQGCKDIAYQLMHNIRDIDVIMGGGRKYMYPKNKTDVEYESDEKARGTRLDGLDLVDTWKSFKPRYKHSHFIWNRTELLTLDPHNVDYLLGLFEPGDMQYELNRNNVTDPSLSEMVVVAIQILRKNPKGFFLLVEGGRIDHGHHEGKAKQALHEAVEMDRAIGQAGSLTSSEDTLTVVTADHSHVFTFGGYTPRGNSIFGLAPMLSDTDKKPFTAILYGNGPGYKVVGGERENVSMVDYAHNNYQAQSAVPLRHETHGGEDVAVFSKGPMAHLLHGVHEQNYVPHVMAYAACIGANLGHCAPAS


Experiments:
[1] = target: T3, human ALPP (alkaline phosphatase, placental type) expressed on the surface of CHO cells (human, UniProt P05187 23-506); experiment: flow cytometry on CHO-ALPP cells, apparent KD (KDapp)
T3 construct: also called CHO-ALPP; hALPP
Summary of the method: (§1)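 Cell-surface binding to CHO cells stably transfected with human ALPP, ALPPL2, ALPI or ALPL; cells detached with 0.1% EDTA/PBS, incubated with biparatopic VHH-hFc drug conjugates over a concentration range for 1 hr on ice. Bound agent detected with FITC anti-human Ab (30 min, ice, dark) by flow cytometry; KDapp derived from binding.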

[2] = target: T1, human ALPI (intestinal alkaline …); experiment: cell-based or functional assay
[3] = target: T2, human ALPL (tissue non-specific …); experiment: cell-based or functional assay
[4] = target: T4, human ALPPL2 (alkaline phosphatase, germ cell type) expressed on the surface of CHO cells (human, UniProt P10696 20-503); experiment: cell-based or functional assay
[5] = target: T4, human ALPPL2 (alkaline phosphatase, …); experiment: flow cytometry on CHO-ALPPL2 cells, apparent KD (KDapp)
Summary of the method: as §1

[6] = target: T2, human ALPL (tissue non-specific …); experiment: flow cytometry, CHO-ALPL cells
[7] = target: T1, human ALPI (intestinal alkaline …); experiment: flow cytometry, CHO-ALPI cells

T4 sequence (P10696 20-503): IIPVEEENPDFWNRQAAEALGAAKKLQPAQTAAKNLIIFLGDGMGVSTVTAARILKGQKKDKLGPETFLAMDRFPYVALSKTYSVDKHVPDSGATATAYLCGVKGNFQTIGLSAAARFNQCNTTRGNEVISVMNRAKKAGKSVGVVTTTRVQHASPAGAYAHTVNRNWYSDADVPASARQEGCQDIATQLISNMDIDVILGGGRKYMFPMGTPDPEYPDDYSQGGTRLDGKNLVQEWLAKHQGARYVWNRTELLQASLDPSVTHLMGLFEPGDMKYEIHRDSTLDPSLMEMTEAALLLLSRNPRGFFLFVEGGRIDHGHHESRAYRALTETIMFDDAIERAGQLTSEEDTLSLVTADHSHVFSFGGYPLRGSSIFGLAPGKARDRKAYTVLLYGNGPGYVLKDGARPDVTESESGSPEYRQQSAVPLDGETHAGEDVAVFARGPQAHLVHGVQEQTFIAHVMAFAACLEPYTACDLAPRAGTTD
T3 sequence (P05187 23-506 limits assumed): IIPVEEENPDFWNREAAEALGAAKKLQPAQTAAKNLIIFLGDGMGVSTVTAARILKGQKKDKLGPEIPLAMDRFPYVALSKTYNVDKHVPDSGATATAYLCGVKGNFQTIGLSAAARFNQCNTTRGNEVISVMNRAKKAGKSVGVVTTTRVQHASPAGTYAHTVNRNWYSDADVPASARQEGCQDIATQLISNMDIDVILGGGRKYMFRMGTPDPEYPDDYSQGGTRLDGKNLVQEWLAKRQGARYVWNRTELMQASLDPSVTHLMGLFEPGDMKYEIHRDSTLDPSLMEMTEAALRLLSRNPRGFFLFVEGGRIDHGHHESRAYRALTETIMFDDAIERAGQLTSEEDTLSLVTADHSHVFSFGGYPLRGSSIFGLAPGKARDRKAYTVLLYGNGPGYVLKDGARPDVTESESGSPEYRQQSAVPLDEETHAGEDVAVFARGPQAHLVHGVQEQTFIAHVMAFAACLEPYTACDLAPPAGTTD

Binder | Kd [1] [nM] | IC50 at 96 h, cell-killing of CHO-ALPI cells (estimated from data extrapolation) [2] [nM] | IC50 at 96 h, cell-killing of CHO-ALPL cells [3] [nM] | IC50 at 96 h, cell-killing of CHO-ALPPL2 cells [4] [nM] | Kd [5] [nM] | binding result [6] | binding result [7] | IC50 at 96 h, cell-killing of CHO-ALPI cells [2] [nM]
D10 E10-hFc (S239/442C T366Y/Y407T), [G4S]1 linker, MC-vc-PAB-MMAE conjugate, #678 (Fc fusion, DAR 4, MC-vc-PAB-MMAE on Cys of S239C and S442C (EU numbering), Biparatopic knob-into-hole VHH-hFc heterodimer, DAR 4; also called D10-E10-hFc-vcPAB-MMAE; D10-E10 hFc-vc-MMAE) chain 1: QVQLVESGGGLVQPGGSLRLSCAASGSIFSVNTMGWYRQAPGKQRDLVAVATSGGTIHYADSVKGRFTISRDNAKNTVYLQMNSLKPEDTAVYYCNLVVPYGMIAGDHDYWGQGTKVTVSSGGGGSEPKSSDKTHTCPPCPAPELLGGPCVFLFPPKPKDTLMISRTPEVTCVVVDVSHEDPEVKFNWYVDGVEVHNAKTKPREEQYNSTYRVVSVLTVLHQDWLNGKEYKCKVSNKALPAPIEKTISKAKGQPREPQVYTLPPSRDELTKNQVSLYCLVKGFYPSDIAVEWESNGQPENNYKTTPPVLDSDGSFFLYSKLTVDKSRWQQGNVFSCSVMHEALHNHYTQKSLCLSPGK chain 2: QVQLVESGGGLVQAGGSLRLSCAVSGRALSDYNIGWFRQAPGKEREFVARKTWDGSSTRYDDSVKGRFTVSIEDAKNTAYLQMSSLKTEDTAVYYCAAGRYSRARGWEYDYWGQGTQVTVSSGGGGSEPKSSDKTHTCPPCPAPELLGGPCVFLFPPKPKDTLMISRTPEVTCVVVDVSHEDPEVKFNWYVDGVEVHNAKTKPREEQYNSTYRVVSVLTVLHQDWLNGKEYKCKVSNKALPAPIEKTISKAKGQPREPQVYTLPPSRDELTKNQVSLTCLVKGFYPSDIAVEWESNGQPENNYKTTPPVLDSDGSFFLTSKLTVDKSRWQQGNVFSCSVMHEALHNHYTQKSLCLSPGK | 6.9 | ~972 | > 1000 | 12.8 | 5 | no binding (tested: 350 nM (highest concentration)) | no binding (tested: 350 nM (highest concentration)) | –
D10 F05-hFc (S239/442C T366Y/Y407T), [G4S]1 linker, MC-vc-PAB-MMAE conjugate, #679 (Fc fusion, DAR 4, MC-vc-PAB-MMAE on Cys of S239C and S442C (EU numbering), Biparatopic knob-into-hole VHH-hFc heterodimer, DAR 4; also called D10-F05-hFc-vcPAB-MMAE; D10-F05 hFc-vc-MMAE) chain 1: QVQLVESGGGLVQPGGSLRLSCAASGSIFSVNTMGWYRQAPGKQRDLVAVATSGGTIHYADSVKGRFTISRDNAKNTVYLQMNSLKPEDTAVYYCNLVVPYGMIAGDHDYWGQGTKVTVSSGGGGSEPKSSDKTHTCPPCPAPELLGGPCVFLFPPKPKDTLMISRTPEVTCVVVDVSHEDPEVKFNWYVDGVEVHNAKTKPREEQYNSTYRVVSVLTVLHQDWLNGKEYKCKVSNKALPAPIEKTISKAKGQPREPQVYTLPPSRDELTKNQVSLYCLVKGFYPSDIAVEWESNGQPENNYKTTPPVLDSDGSFFLYSKLTVDKSRWQQGNVFSCSVMHEALHNHYTQKSLCLSPGK chain 2: QVQLVESGGGLVQAGGSLRLSCAASGRAFGDYNIGWFRQAPGKEREFVARRTWDGSSTRYDDSVKGRFTVSIDNAKNTAYLQMNSLKTEDTAVYYCAAGRYSRVRGWEYDYWGQGTQVTVSSGGGGSEPKSSDKTHTCPPCPAPELLGGPCVFLFPPKPKDTLMISRTPEVTCVVVDVSHEDPEVKFNWYVDGVEVHNAKTKPREEQYNSTYRVVSVLTVLHQDWLNGKEYKCKVSNKALPAPIEKTISKAKGQPREPQVYTLPPSRDELTKNQVSLTCLVKGFYPSDIAVEWESNGQPENNYKTTPPVLDSDGSFFLTSKLTVDKSRWQQGNVFSCSVMHEALHNHYTQKSLCLSPGK | 6.6 | – | > 1000 | 16.1 | 5.2 | no binding (tested: 350 nM (highest concentration)) | no binding (tested: 350 nM (highest concentration)) | > 1000
